Tests used:
[1] = tested on: Th2 cells; test: Cytotoxic activity against Th2 cells: cytokine production of PBMC after antibody treatment; assay type: cell-based, human; conditions: antibody 10 μg/mL 20 hours, then anti-CD3/anti-CD28 stimulation 3 days
Experimental: The mononuclear cell layer prepared in the same manner as in Example 13 was washed twice with RPMI-1640 (Wako Pure Chemical Industries) to which 1/10 volume FBS (GIBCO Inc.), 200 mM-L-Glutamine Stock Solution (NACALAI TESQUE, Inc.), 10 mM MEM Non-Essential Amino Acids Solution (GIBCO Inc.), 100 mM Sodium Pyruvate (GIBCO Inc.), 1 M HEPES Buffer Solution (GIBCO Inc.), and 1/100 volume Penicillin-Streptomycin, Liquid (GIBCO Inc.) were added [hereinafter, referred to as peripheral blood mononuclear cell (PBMC) culture medium], thereby preparing a 1×10^7 cells/mL cell suspension.
The prepared cell suspension was seeded in a 96-well plate at 100 μL/well, chLym2 antibody, the humanized anti-human CRTH2 antibody LV0HV1 or the isotype control antibody described in Example 8 was added thereto at a final concentration of 10 μg/mL to cause a reaction in a 5% CO2 incubator at 37° C. for 20 hours.
The cells after the reaction were washed 7 times with a PBMC culture medium to remove the test antibodies thoroughly. Thereafter, the cells were suspended with 100 μL of PBMC culture medium and seeded in a plate in which anti-CD3 antibody OKT3 (Abeam plc.) was immobilized at a concentration of 1 μg/mL. Next, an anti-CD28 antibody (BD Biosciences) prepared to have a concentration of 2 μg/mL was added thereto at 100 μL/well to cause a reaction in a 5% CO2 incubator at 37° C. for 3 days.
The supernatant after the reaction was recovered, and cytokine in the supernatant was quantified using Human IFN-γ Flex Set (BD Biosciences), Human IL-5 Flex Set (BD Biosciences), and Human IL-13 Flex Set (BD Biosciences) according to the attached instructions.

[2] = tested on: differentiation-induced Th1 cells; test: Reactivity against differentiation-induced Th1 cells; assay type: binding, human; conditions: antibody 10 μg/mL, 4° C., 1 hour; FIG. 15
Experimental: Healthy person-derived frozen PBMC (Allcells, LLC.) was washed once with 20 mL of PBMC culture medium containing 50 μL of DNase I recombinant, RNase-free (Roche Diagnostics K.K.), suspended with 20 mL of PBMC culture medium containing 50 μL of DNase I recombinant, RNase-free, and allowed to stand in a 5% CO2 incubator at 37° C. for 2 hours.
Thereafter, the cells were washed twice with the MACS buffer described in Example 11 and naive CD4-positive T-cells were isolated by a negative selection method using Naive CD4^+ T Cell Isolation Kit II human (Miltenyi Biotec) according to the attached instructions. The negative selection was performed twice in order to improve purity of the naive CD4-positive T-cells.
According to the method described in J Immunol, 2002. 169(5): p. […]
After the cells were washed, 10 μg/mL of CELL LAB Mouse Anti-Rat Kappa (kappa light chain specific) FITC (Beckman Coulter Inc.) diluted with SM was added to wells to which Lym2 antibody or BM16 was added, 10 μg/mL of CELL LAB Goat Anti-Mouse IgG (γ chain specific) Fluorescein (FITC) Conjugate (Beckman Coulter Inc.) diluted with SM was added to wells to which 301108 was added at a final concentration of 10 μg/mL to cause a reaction at 4° C. for 1 hour. After the cells were washed again, the cells were suspended with SM, and the fluorescent intensity was analyzed by flow cytometry (BD Biosciences, FACS CantoII).

B1: LV0HV1: humanized Lym2 antibody, VL LV0 (SEQ ID NO: 33), VH HV1 (SEQ ID NO: 51) (antibody, V domains shown)
VH: EVQLVESGGGVVQPGRSLRLSCAASGFTFSNYYMAWVRQAPGKGLEWVATISYDGSSTYYRDSVKGRFTISRDNAKNSLYLQMNSLRAEDTATYYCARHRGYYYSGAGYFDYWGQGTMVTVSS
VL: DIVMTQTPLSLPVTPGESASISCRSSQSLEYSDGYTYLEWYLQKPGQSPQVLIYGVSNRFSGVPDRFSGSGSGTDFTLKISRVEAEDVGVYYCFQATHDPLTFGQGTKLEIK
- production of IL-5 (Th2 cytokine) ([1]; FIG. 12(A)): reduced
- production of IL-13 (Th2 cytokine) ([1]; FIG. 12(A)): reduced
- production of IFN-γ (Th1 cytokine) ([1]; FIG. 12(B)): not changed

B2: Lym2 antibody: rat anti-human CRTH2 monoclonal antibody from hybridoma Lym2, rat IgG2b; VH SEQ ID NO: 17, VL SEQ ID NO: 19 (antibody, listed as Rattus norvegicus, V domains shown)
VH: EVQLVESGGGLVQPGRSMKLSCAASGFTFSNYYMAWVRQAPKKGLEWVATISYDGSSTYYRDSVKGRFTISRDNAKSTLYLQMDSLRSEDTATYYCARHRGYYYSGAGYFDYWGQGVMVTVSS
VL: DVVLTQTPVSLSVTLGDQASISCRSSQSLEYSDGYTYLEWYLQKPGQSPQVLIYGVSNRFSGVPDRFIGSGSGTDFTLKISRVEPEDLGVYYCFQATHDPLTFGSGTKLEIK
- reactivity against the differentiation-induced Th1 [2]: did not exhibit reactivity
